{"source": "the Human Domainome abundance scans (Beltran et al. 2025)", "parents": {"B1": {"name": "Tumor protein 63, residues 545 to 610; numbered along this chain, Q9H3D4 (parent)", "chain": "TDCSIVSFLARLGCSSCLDYFTTQGLTTIYQIEHYSMDDLASLKIPEQFRHAIWKGILDHRQLHEF"}}, "note": "± gives the uncertainty stated by the source.", "data": [{"variants_of": "B1", "assay": "abundance fitness (aPCA) (normalised: wild type 0, dead -1); higher = more abundant; growth selection in yeast, the domain comes from the species named", "settings": "Homo sapiens", "values": [{"variant": "TDCSIVSFLAMLGCSSCLDYFTTQGLTTIYQIEHYSMDDLASLKIPEQFRHAIWKGILDHRQLHEF", "note": "[R11M]", "abundance fitness": "-0.111 ± 0.028"}, {"variant": "TDCSIVSFLAILGCSSCLDYFTTQGLTTIYQIEHYSMDDLASLKIPEQFRHAIWKGILDHRQLHEF", "note": "[R11I]", "abundance fitness": "-0.126 ± 0.043"}, {"variant": "TDCSIVSFLAPLGCSSCLDYFTTQGLTTIYQIEHYSMDDLASLKIPEQFRHAIWKGILDHRQLHEF", "note": "[R11P]", "abundance fitness": "-0.133 ± 0.024"}, {"variant": "TDCSIVSFLAKLGCSSCLDYFTTQGLTTIYQIEHYSMDDLASLKIPEQFRHAIWKGILDHRQLHEF", "note": "[R11K]", "abundance fitness": "-0.02 ± 0.037"}, {"variant": "TDCSIVSFLAFLGCSSCLDYFTTQGLTTIYQIEHYSMDDLASLKIPEQFRHAIWKGILDHRQLHEF", "note": "[R11F]", "abundance fitness": "-0.268 ± 0.039"}, {"variant": "TDCSIVSFLAVLGCSSCLDYFTTQGLTTIYQIEHYSMDDLASLKIPEQFRHAIWKGILDHRQLHEF", "note": "[R11V]", "abundance fitness": "-0.171 ± 0.025"}, {"variant": "TDCSIVSFLAHLGCSSCLDYFTTQGLTTIYQIEHYSMDDLASLKIPEQFRHAIWKGILDHRQLHEF", "note": "[R11H]", "abundance fitness": "-0.127 ± 0.051"}, {"variant": "TDCSIVSFLAYLGCSSCLDYFTTQGLTTIYQIEHYSMDDLASLKIPEQFRHAIWKGILDHRQLHEF", "note": "[R11Y]", "abundance fitness": "-0.221 ± 0.05"}, {"variant": "TDCSIVSFLAGLGCSSCLDYFTTQGLTTIYQIEHYSMDDLASLKIPEQFRHAIWKGILDHRQLHEF", "note": "[R11G]", "abundance fitness": "-0.071 ± 0.022"}, {"variant": "TDCSIVSFLATLGCSSCLDYFTTQGLTTIYQIEHYSMDDLASLKIPEQFRHAIWKGILDHRQLHEF", "note": "[R11T]", "abundance fitness": "-0.023 ± 0.03"}, {"variant": "TDCSIVSFLANLGCSSCLDYFTTQGLTTIYQIEHYSMDDLASLKIPEQFRHAIWKGILDHRQLHEF", "note": "[R11N]", "abundance fitness": "-0.093 ± 0.037"}, {"variant": "TDCSIVSFLAQLGCSSCLDYFTTQGLTTIYQIEHYSMDDLASLKIPEQFRHAIWKGILDHRQLHEF", "note": "[R11Q]", "abundance fitness": "-0.08 ± 0.029"}, {"variant": "TDCSIVSFLARPGCSSCLDYFTTQGLTTIYQIEHYSMDDLASLKIPEQFRHAIWKGILDHRQLHEF", "note": "[L12P]", "abundance fitness": "-0.726 ± 0.056"}, {"variant": "TDCSIVSFLARFGCSSCLDYFTTQGLTTIYQIEHYSMDDLASLKIPEQFRHAIWKGILDHRQLHEF", "note": "[L12F]", "abundance fitness": "-0.149 ± 0.048"}, {"variant": "TDCSIVSFLARWGCSSCLDYFTTQGLTTIYQIEHYSMDDLASLKIPEQFRHAIWKGILDHRQLHEF", "note": "[L12W]", "abundance fitness": "-0.072 ± 0.037"}, {"variant": "TDCSIVSFLAREGCSSCLDYFTTQGLTTIYQIEHYSMDDLASLKIPEQFRHAIWKGILDHRQLHEF", "note": "[L12E]", "abundance fitness": "-0.285 ± 0.038"}, {"variant": "TDCSIVSFLARYGCSSCLDYFTTQGLTTIYQIEHYSMDDLASLKIPEQFRHAIWKGILDHRQLHEF", "note": "[L12Y]", "abundance fitness": "-0.048 ± 0.034"}, {"variant": "TDCSIVSFLARTGCSSCLDYFTTQGLTTIYQIEHYSMDDLASLKIPEQFRHAIWKGILDHRQLHEF", "note": "[L12T]", "abundance fitness": "-0.06 ± 0.037"}, {"variant": "TDCSIVSFLARRGCSSCLDYFTTQGLTTIYQIEHYSMDDLASLKIPEQFRHAIWKGILDHRQLHEF", "note": "[L12R]", "abundance fitness": "-0.112 ± 0.024"}, {"variant": "TDCSIVSFLARVGCSSCLDYFTTQGLTTIYQIEHYSMDDLASLKIPEQFRHAIWKGILDHRQLHEF", "note": "[L12V]", "abundance fitness": "-0.047 ± 0.024"}, {"variant": "TDCSIVSFLARKGCSSCLDYFTTQGLTTIYQIEHYSMDDLASLKIPEQFRHAIWKGILDHRQLHEF", "note": "[L12K]", "abundance fitness": "-0.146 ± 0.048"}, {"variant": "TDCSIVSFLARHGCSSCLDYFTTQGLTTIYQIEHYSMDDLASLKIPEQFRHAIWKGILDHRQLHEF", "note": "[L12H]", "abundance fitness": "-0.099 ± 0.042"}, {"variant": "TDCSIVSFLARMGCSSCLDYFTTQGLTTIYQIEHYSMDDLASLKIPEQFRHAIWKGILDHRQLHEF", "note": "[L12M]", "abundance fitness": "-0.05 ± 0.034"}, {"variant": "TDCSIVSFLARIGCSSCLDYFTTQGLTTIYQIEHYSMDDLASLKIPEQFRHAIWKGILDHRQLHEF", "note": "[L12I]", "abundance fitness": "0.021 ± 0.036"}, {"variant": "TDCSIVSFLARQGCSSCLDYFTTQGLTTIYQIEHYSMDDLASLKIPEQFRHAIWKGILDHRQLHEF", "note": "[L12Q]", "abundance fitness": "-0.074 ± 0.036"}, {"variant": "TDCSIVSFLARSGCSSCLDYFTTQGLTTIYQIEHYSMDDLASLKIPEQFRHAIWKGILDHRQLHEF", "note": "[L12S]", "abundance fitness": "-0.119 ± 0.028"}, {"variant": "TDCSIVSFLARGGCSSCLDYFTTQGLTTIYQIEHYSMDDLASLKIPEQFRHAIWKGILDHRQLHEF", "note": "[L12G]", "abundance fitness": "-0.648 ± 0.032"}, {"variant": "TDCSIVSFLARNGCSSCLDYFTTQGLTTIYQIEHYSMDDLASLKIPEQFRHAIWKGILDHRQLHEF", "note": "[L12N]", "abundance fitness": "-0.107 ± 0.033"}, {"variant": "TDCSIVSFLARAGCSSCLDYFTTQGLTTIYQIEHYSMDDLASLKIPEQFRHAIWKGILDHRQLHEF", "note": "[L12A]", "abundance fitness": "-0.068 ± 0.027"}, {"variant": "TDCSIVSFLARDGCSSCLDYFTTQGLTTIYQIEHYSMDDLASLKIPEQFRHAIWKGILDHRQLHEF", "note": "[L12D]", "abundance fitness": "-0.836 ± 0.078"}, {"variant": "TDCSIVSFLARCGCSSCLDYFTTQGLTTIYQIEHYSMDDLASLKIPEQFRHAIWKGILDHRQLHEF", "note": "[L12C]", "abundance fitness": "-0.087 ± 0.034"}, {"variant": "TDCSIVSFLARLHCSSCLDYFTTQGLTTIYQIEHYSMDDLASLKIPEQFRHAIWKGILDHRQLHEF", "note": "[G13H]", "abundance fitness": "-0.174 ± 0.095"}, {"variant": "TDCSIVSFLARLICSSCLDYFTTQGLTTIYQIEHYSMDDLASLKIPEQFRHAIWKGILDHRQLHEF", "note": "[G13I]", "abundance fitness": "-0.814 ± 0.41"}, {"variant": "TDCSIVSFLARLFCSSCLDYFTTQGLTTIYQIEHYSMDDLASLKIPEQFRHAIWKGILDHRQLHEF", "note": "[G13F]", "abundance fitness": "-0.45 ± 0.05"}, {"variant": "TDCSIVSFLARLPCSSCLDYFTTQGLTTIYQIEHYSMDDLASLKIPEQFRHAIWKGILDHRQLHEF", "note": "[G13P]", "abundance fitness": "-0.935 ± 0.13"}, {"variant": "TDCSIVSFLARLECSSCLDYFTTQGLTTIYQIEHYSMDDLASLKIPEQFRHAIWKGILDHRQLHEF", "note": "[G13E]", "abundance fitness": "-0.071 ± 0.04"}, {"variant": "TDCSIVSFLARLACSSCLDYFTTQGLTTIYQIEHYSMDDLASLKIPEQFRHAIWKGILDHRQLHEF", "note": "[G13A]", "abundance fitness": "-0.117 ± 0.037"}, {"variant": "TDCSIVSFLARLNCSSCLDYFTTQGLTTIYQIEHYSMDDLASLKIPEQFRHAIWKGILDHRQLHEF", "note": "[G13N]", "abundance fitness": "-0.013 ± 0.058"}, {"variant": "TDCSIVSFLARLLCSSCLDYFTTQGLTTIYQIEHYSMDDLASLKIPEQFRHAIWKGILDHRQLHEF", "note": "[G13L]", "abundance fitness": "-0.438 ± 0.029"}, {"variant": "TDCSIVSFLARLMCSSCLDYFTTQGLTTIYQIEHYSMDDLASLKIPEQFRHAIWKGILDHRQLHEF", "note": "[G13M]", "abundance fitness": "-0.178 ± 0.036"}, {"variant": "TDCSIVSFLARLDCSSCLDYFTTQGLTTIYQIEHYSMDDLASLKIPEQFRHAIWKGILDHRQLHEF", "note": "[G13D]", "abundance fitness": "0.004 ± 0.047"}]}]}
